Laboratory results published in article doi:10.1101/2025.10.22.684031.

Experiments:
Assay in all cases: SPR
N49P7-FR IgG1 = biological target: N49P7-FR IgG1
N49P7 IgG1 = biological target: N49P7 IgG1
eN49P7-FRv1-23 IgG1 = biological target: eN49P7-FRv1-23 IgG1
eN49P7-FRv1-23 IgG1, sequence (VH, as listed by the source, chain 1 of 2): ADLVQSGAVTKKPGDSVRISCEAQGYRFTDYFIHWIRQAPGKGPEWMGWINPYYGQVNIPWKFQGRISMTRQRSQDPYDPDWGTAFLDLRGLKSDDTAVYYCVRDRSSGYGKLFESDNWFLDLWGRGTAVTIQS
eN49P7-FRv1-23 IgG1, sequence (VL, as listed by the source, chain 2 of 2): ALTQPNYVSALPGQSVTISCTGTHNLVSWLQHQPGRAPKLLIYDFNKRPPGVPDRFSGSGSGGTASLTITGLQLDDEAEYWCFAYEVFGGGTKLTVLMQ

N49P7-FR IgG1, sequence (VH, as listed by the source, chain 1 of 2): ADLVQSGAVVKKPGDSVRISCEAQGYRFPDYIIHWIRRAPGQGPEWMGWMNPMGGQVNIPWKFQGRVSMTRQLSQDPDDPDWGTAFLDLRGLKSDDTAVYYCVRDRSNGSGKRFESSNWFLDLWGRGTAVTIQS
N49P7-FR IgG1, sequence (VL, as listed by the source, chain 2 of 2): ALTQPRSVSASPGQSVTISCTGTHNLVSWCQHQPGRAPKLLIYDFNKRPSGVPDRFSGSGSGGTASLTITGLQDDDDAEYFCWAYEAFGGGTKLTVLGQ
N49P7 IgG1, sequence (heavy, as listed by the source, chain 1 of 2): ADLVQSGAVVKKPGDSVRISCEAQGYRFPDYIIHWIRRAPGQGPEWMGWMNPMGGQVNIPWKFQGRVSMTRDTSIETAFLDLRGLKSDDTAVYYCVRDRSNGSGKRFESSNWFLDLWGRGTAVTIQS
N49P7 IgG1, sequence (light, as listed by the source, chain 2 of 2): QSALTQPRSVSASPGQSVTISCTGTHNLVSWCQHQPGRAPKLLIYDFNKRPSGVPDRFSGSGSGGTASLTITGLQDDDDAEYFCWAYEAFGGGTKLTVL

| Substance | Kd (N49P7-FR IgG1) | koff (N49P7-FR IgG1) | kon (N49P7-FR IgG1) | Kd (N49P7 IgG1) | koff (N49P7 IgG1) | kon (N49P7 IgG1) | Kd (eN49P7-FRv1-23 IgG1) | koff (eN49P7-FRv1-23 IgG1) | kon (eN49P7-FRv1-23 IgG1) |
| --- | --- | --- | --- | --- | --- | --- | --- | --- | --- |
| HIV gp120 BJOX2000 (clade BC) (natural protein) | > 1000 nM | 0.0025 s⁻¹ | 280 M⁻¹ s⁻¹ | > 1000 nM | 0.0024 s⁻¹ | 680 M⁻¹ s⁻¹ | 50 nM | 0.00092 s⁻¹ | 18000 M⁻¹ s⁻¹ |
| HIV gp120 CNE8 (clade AE) (natural protein) | 15 nM | 0.0013 s⁻¹ | 88000 M⁻¹ s⁻¹ | 73 nM | 0.00079 s⁻¹ | 11000 M⁻¹ s⁻¹ | 47 nM | 0.0011 s⁻¹ | 24000 M⁻¹ s⁻¹ |
| HIV gp120 IAVI-C22 (clade C) (natural protein) | > 1000 nM | 0.0014 s⁻¹ | 200 M⁻¹ s⁻¹ | 230 nM | 0.0011 s⁻¹ | 4900 M⁻¹ s⁻¹ | 65 nM | 0.00092 s⁻¹ | 14000 M⁻¹ s⁻¹ |
| HIV gp120 93TH057 (clade AE) (natural protein) | 19 nM | 0.0022 s⁻¹ | 120000 M⁻¹ s⁻¹ | – | – | – | 29 nM | 0.0015 s⁻¹ | 51000 M⁻¹ s⁻¹ |
| HIV gp120 CAP45 (clade C) (natural protein) | 140 nM | 0.0017 s⁻¹ | 12000 M⁻¹ s⁻¹ | – | – | – | 31 nM | 0.0031 s⁻¹ | 100000 M⁻¹ s⁻¹ |
| HIV gp120 6041.v3 (clade AC) (natural protein) | 190 nM | 0.0026 s⁻¹ | 14000 M⁻¹ s⁻¹ | 100 nM | 0.0032 s⁻¹ | 31000 M⁻¹ s⁻¹ | 24 nM | 0.001 s⁻¹ | 44000 M⁻¹ s⁻¹ |
| HIV gp120 TRO.11 (clade B) (natural protein) | 120 nM | 0.0012 s⁻¹ | 9900 M⁻¹ s⁻¹ | – | – | – | 44 nM | 0.00074 s⁻¹ | 17000 M⁻¹ s⁻¹ |
| HIV gp120 CH119 (clade BC) (natural protein) | 110 nM | 0.0008 s⁻¹ | 7400 M⁻¹ s⁻¹ | – | – | – | 20 nM | 0.00053 s⁻¹ | 27000 M⁻¹ s⁻¹ |
| HIV gp120 Ce1176 (clade C) (natural protein) | 63 nM | 0.00059 s⁻¹ | 9400 M⁻¹ s⁻¹ | – | – | – | 17 nM | 0.00069 s⁻¹ | 42000 M⁻¹ s⁻¹ |
